In PMC3699067:

Target: T1, DJ-1 (human (endogenous in HEK293T)), Q99497
T1 chain: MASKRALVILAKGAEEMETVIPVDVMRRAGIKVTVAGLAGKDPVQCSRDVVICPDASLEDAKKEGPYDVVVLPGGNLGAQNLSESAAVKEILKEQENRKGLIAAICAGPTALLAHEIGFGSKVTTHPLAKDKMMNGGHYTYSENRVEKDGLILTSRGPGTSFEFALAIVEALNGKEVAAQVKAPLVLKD
Assay: cross-linking
Settings: remark: other sources report otherwise

stoichiometry N: 2
B1: DJ-1, Q99497 1-189 (natural protein)
chain: T1 chain
